# In patent US20150203577A1 (Chugai, published 2015):
# T1: mouse FcγRIII extracellular domain, C-terminal His tag (mouse, UniProt P08508 31-215)
# T1 construct: also called mFcγRIII; mFcgRIII
# T1 chain: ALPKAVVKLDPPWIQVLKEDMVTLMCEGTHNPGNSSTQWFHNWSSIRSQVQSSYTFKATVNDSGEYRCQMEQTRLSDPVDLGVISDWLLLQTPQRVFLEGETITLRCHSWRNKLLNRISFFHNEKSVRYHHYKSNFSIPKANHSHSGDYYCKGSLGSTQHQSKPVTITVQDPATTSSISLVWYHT
# T2: mouse FcγRII extracellular domain, C-terminal His tag (mouse, UniProt P08101 30-210)
# T2 construct: also called mFcγRII; mFcgRII
# T2 sequence: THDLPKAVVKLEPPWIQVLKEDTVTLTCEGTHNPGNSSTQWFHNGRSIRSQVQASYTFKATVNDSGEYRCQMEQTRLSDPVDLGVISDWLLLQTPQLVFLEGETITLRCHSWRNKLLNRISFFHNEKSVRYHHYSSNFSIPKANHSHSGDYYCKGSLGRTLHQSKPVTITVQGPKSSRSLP
# Key:
# [1] = target: T1, mouse FcγRIII extracellular domain, …; assay: SPR (Biacore T200), antibody captured on Protein L, mFcγR analyte
# Procedure: (§1) Each altered antibody was analyzed for its interaction with each Fcγ receptor prepared above using Biacore T100 (GE Healthcare Japan Corp.), Biacore T200 (GE Healthcare Japan Corp.), Biacore A100, or Biacore 4000. The running buffer used was HBS-EP+ (GE Healthcare Japan Corp.). The assay temperature was set to 25° C. The sensor chips used were chips prepared by immobilizing Protein L (ACTIGEN or BioVision) onto Series S Sensor Chip CM5 (GE Healthcare Japan Corp.) or Series S Sensor Chip CM4 (GE Healthcare Japan Corp.) by the amine coupling method.
# (§2) In order to calculate the KD value of each altered antibody for FcγR, kinetic analysis was conducted according to the following method: first, the antibody of interest was captured onto any of these chips and allowed to interact with mFcγR diluted with a running buffer. For the obtained sensorgram, the assay results were globally fit into the 1:1 Langmuir binding model using Biacore Evaluation Software to calculate an association rate constant ka (L/mol/s) and a dissociation rate constant kd (1/s). From these values, the dissociation constant KD (mol/L) was calculated.
# [2] = target: T2, mouse FcγRII extracellular domain, …; assay: as above
# Procedure: as §1, §2
binder,measurement,setting,value
"H237-MB535/MRAL-k0 (antibody, mouse IgG1, kappa, copies: 2 + 2) heavy: QVQLQESGPGLVKPSETLSLTCAVSGHSISHDHAWSWVRQPPGEGLEWIGFISYSGITNYNPSLQGRVTISRDNSKNTLYLQMNSLRAEDTAVYYCARSLARTTAMDYWGEGTLVTVSSAKTTPPSVYPLAPGSAAQTNSMVTLGCLVKGYFPEPVTVTWNSGSLSSGVHTFPAVLQSDLYTLSSSVTVPSSTWPSETVTCNVAHPASSTKVDKKIVPRDCGCKPCICQPNEVEEVFIFPPKPKDVLTITLTPKVTCVVVDISKDDPEVQFSWFVDDVEVHTAQTQPREEQFNLTFRSVSELPIMHQDWLNGKEFKCRVNSDAFPAPIERTISKTKGRPKAPQVYTIPPPKEQMAKDKVSLTCMITDFFPEDITVEWQWNGQPAENYKNTQPIMDTDGSYFVYSKLNVQKSNWEAGNTFTCSVLHEGLHNHHTEKSLSHSPGK light: not shown",Kd,[1],33.2 nM
same,relative mFcγRIII-binding activity (mIgG1 = 1),[1],8.5 fold vs H237-mIgG1/MRAL-k0
same,Kd,[2],0.498 nM
same,relative mFcγRII-binding activity (mIgG1 = 1),[2],422 fold vs H237-mIgG1/MRAL-k0
"H237-MB539/MRAL-k0 (antibody, mouse IgG1, kappa, copies: 2 + 2) heavy: QVQLQESGPGLVKPSETLSLTCAVSGHSISHDHAWSWVRQPPGEGLEWIGFISYSGITNYNPSLQGRVTISRDNSKNTLYLQMNSLRAEDTAVYYCARSLARTTAMDYWGEGTLVTVSSAKTTPPSVYPLAPGSAAQTNSMVTLGCLVKGYFPEPVTVTWNSGSLSSGVHTFPAVLQSDLYTLSSSVTVPSSTWPSETVTCNVAHPASSTKVDKKIVPRDCGCKPCICEPNEVEMVFIFPPKPKDVLTITLTPKVTCVVVDISKDDPEVQFSWFVDDVEVHTAQTQPREEQFNLTFRSVSELPIMHQDWLNGKEFKCRVDSAAFPAPIEKTISKTKGRPKAPQVYTIPPPKEQMAKDKVSLTCMITDFFPEDITVEWQWNGQPAENYKNTQPIMDTDGSYFVYSKLNVQKSNWEAGNTFTCSVLHEGLHNHHTEKSLSHSPGK light: not shown",Kd,[1],147 nM
same,relative mFcγRIII-binding activity (mIgG1 = 1),[1],1.9 fold vs H237-mIgG1/MRAL-k0
same,Kd,[2],2 nM
same,relative mFcγRII-binding activity (mIgG1 = 1),[2],105 fold vs H237-mIgG1/MRAL-k0
"H237-MB540/MRAL-k0 (antibody, mouse IgG1, kappa, copies: 2 + 2) heavy: QVQLQESGPGLVKPSETLSLTCAVSGHSISHDHAWSWVRQPPGEGLEWIGFISYSGITNYNPSLQGRVTISRDNSKNTLYLQMNSLRAEDTAVYYCARSLARTTAMDYWGEGTLVTVSSAKTTPPSVYPLAPGSAAQTNSMVTLGCLVKGYFPEPVTVTWNSGSLSSGVHTFPAVLQSDLYTLSSSVTVPSSTWPSETVTCNVAHPASSTKVDKKIVPRDCGCKPCICEPNEVEMVFIFPPKPKDVLTITLTPKVTCVVVDISKDDPEVQFSWFVDDVEVHTAQTQPREEQFNLTFRSVSELPIMHQDWLNGKEFKCRVNSDAFPAPIEKTISKTKGRPKAPQVYTIPPPKEQMAKDKVSLTCMITDFFPEDITVEWQWNGQPAENYKNTQPIMDTDGSYFVYSKLNVQKSNWEAGNTFTCSVLHEGLHNHHTEKSLSHSPGK light: not shown",Kd,[1],99.4 nM
same,relative mFcγRIII-binding activity (mIgG1 = 1),[1],2.8 fold vs H237-mIgG1/MRAL-k0
same,Kd,[2],1.41 nM
same,relative mFcγRII-binding activity (mIgG1 = 1),[2],149 fold vs H237-mIgG1/MRAL-k0
"H237-MB537/MRAL-k0 (antibody, mouse IgG1, kappa, copies: 2 + 2) heavy: QVQLQESGPGLVKPSETLSLTCAVSGHSISHDHAWSWVRQPPGEGLEWIGFISYSGITNYNPSLQGRVTISRDNSKNTLYLQMNSLRAEDTAVYYCARSLARTTAMDYWGEGTLVTVSSAKTTPPSVYPLAPGSAAQTNSMVTLGCLVKGYFPEPVTVTWNSGSLSSGVHTFPAVLQSDLYTLSSSVTVPSSTWPSETVTCNVAHPASSTKVDKKIVPRDCGCKPCICQPNEVEEVFIFPPKPKDVLTITLTPKVTCVVVDISKDDPEVQFSWFVDDVEVHTAQTQPREEQFNLTFRSVSELPIMHQDWLNGKEFKCRVDSDAFPAPIERTISKTKGRPKAPQVYTIPPPKEQMAKDKVSLTCMITDFFPEDITVEWQWNGQPAENYKNTQPIMDTDGSYFVYSKLNVQKSNWEAGNTFTCSVLHEGLHNHHTEKSLSHSPGK light: not shown",Kd,[1],31.7 nM
same,relative mFcγRIII-binding activity (mIgG1 = 1),[1],8.9 fold vs H237-mIgG1/MRAL-k0
same,Kd,[2],0.412 nM
same,relative mFcγRII-binding activity (mIgG1 = 1),[2],510 fold vs H237-mIgG1/MRAL-k0
"H237-MB543/MRAL-k0 (antibody, mouse IgG1, kappa, copies: 2 + 2) heavy: QVQLQESGPGLVKPSETLSLTCAVSGHSISHDHAWSWVRQPPGEGLEWIGFISYSGITNYNPSLQGRVTISRDNSKNTLYLQMNSLRAEDTAVYYCARSLARTTAMDYWGEGTLVTVSSAKTTPPSVYPLAPGSAAQTNSMVTLGCLVKGYFPEPVTVTWNSGSLSSGVHTFPAVLQSDLYTLSSSVTVPSSTWPSETVTCNVAHPASSTKVDKKIVPRDCGCKPCICEPNEVEMVFIFPPKPKDVLTITLTPKVTCVVVDISKDDPEVQFSWFVDDVEVHTAQTQPREEQFNSTFRSVSELPIMHQDWLNGKEFKCRVDSAAFPAPIERTISKTKGRPKAPQVYTIPPPKEQMAKDKVSLTCMITDFFPEDITVEWQWNGQPAENYKNTQPIMDTDGSYFVYSKLNVQKSNWEAGNTFTCSVLHEGLHNHHTEKSLSHSPGK light: not shown",Kd,[1],126 nM
same,relative mFcγRIII-binding activity (mIgG1 = 1),[1],2.2 fold vs H237-mIgG1/MRAL-k0
same,Kd,[2],1.08 nM
same,relative mFcγRII-binding activity (mIgG1 = 1),[2],195 fold vs H237-mIgG1/MRAL-k0
"H237-MB536/MRAL-k0 (antibody, mouse IgG1, kappa, copies: 2 + 2) heavy: QVQLQESGPGLVKPSETLSLTCAVSGHSISHDHAWSWVRQPPGEGLEWIGFISYSGITNYNPSLQGRVTISRDNSKNTLYLQMNSLRAEDTAVYYCARSLARTTAMDYWGEGTLVTVSSAKTTPPSVYPLAPGSAAQTNSMVTLGCLVKGYFPEPVTVTWNSGSLSSGVHTFPAVLQSDLYTLSSSVTVPSSTWPSETVTCNVAHPASSTKVDKKIVPRDCGCKPCICQPNEVEEVFIFPPKPKDVLTITLTPKVTCVVVDISKDDPEVQFSWFVDDVEVHTAQTQPREEQFNSTFRSVSELPIMHQDWLNGKEFKCRVDSDAFPAPIERTISKTKGRPKAPQVYTIPPPKEQMAKDKVSLTCMITDFFPEDITVEWQWNGQPAENYKNTQPIMDTDGSYFVYSKLNVQKSNWEAGNTFTCSVLHEGLHNHHTEKSLSHSPGK light: not shown",Kd,[1],36.8 nM
same,relative mFcγRIII-binding activity (mIgG1 = 1),[1],7.7 fold vs H237-mIgG1/MRAL-k0
same,Kd,[2],0.53 nM
same,relative mFcγRII-binding activity (mIgG1 = 1),[2],396 fold vs H237-mIgG1/MRAL-k0
"H237-MB542/MRAL-k0 (antibody, mouse IgG1, kappa, copies: 2 + 2) heavy: QVQLQESGPGLVKPSETLSLTCAVSGHSISHDHAWSWVRQPPGEGLEWIGFISYSGITNYNPSLQGRVTISRDNSKNTLYLQMNSLRAEDTAVYYCARSLARTTAMDYWGEGTLVTVSSAKTTPPSVYPLAPGSAAQTNSMVTLGCLVKGYFPEPVTVTWNSGSLSSGVHTFPAVLQSDLYTLSSSVTVPSSTWPSETVTCNVAHPASSTKVDKKIVPRDCGCKPCICEPNEVEMVFIFPPKPKDVLTITLTPKVTCVVVDISKDDPEVQFSWFVDDVEVHTAQTQPREEQFNSTFRSVSELPIMHQDWLNGKEFKCRVDSDAFPAPIEKTISKTKGRPKAPQVYTIPPPKEQMAKDKVSLTCMITDFFPEDITVEWQWNGQPAENYKNTQPIMDTDGSYFVYSKLNVQKSNWEAGNTFTCSVLHEGLHNHHTEKSLSHSPGK light: not shown",Kd,[1],83.3 nM
same,relative mFcγRIII-binding activity (mIgG1 = 1),[1],3.4 fold vs H237-mIgG1/MRAL-k0
same,Kd,[2],0.547 nM
same,relative mFcγRII-binding activity (mIgG1 = 1),[2],384 fold vs H237-mIgG1/MRAL-k0
"H237-MB538/MRAL-k0 (antibody, mouse IgG1, kappa, copies: 2 + 2) heavy: QVQLQESGPGLVKPSETLSLTCAVSGHSISHDHAWSWVRQPPGEGLEWIGFISYSGITNYNPSLQGRVTISRDNSKNTLYLQMNSLRAEDTAVYYCARSLARTTAMDYWGEGTLVTVSSAKTTPPSVYPLAPGSAAQTNSMVTLGCLVKGYFPEPVTVTWNSGSLSSGVHTFPAVLQSDLYTLSSSVTVPSSTWPSETVTCNVAHPASSTKVDKKIVPRDCGCKPCICEPNEVEMVFIFPPKPKDVLTITLTPKVTCVVVDISKDDPEVQFSWFVDDVEVHTAQTQPREEQFNLTFRSVSELPIMHQDWLNGKEFKCRVNSAAFPAPIEKTISKTKGRPKAPQVYTIPPPKEQMAKDKVSLTCMITDFFPEDITVEWQWNGQPAENYKNTQPIMDTDGSYFVYSKLNVQKSNWEAGNTFTCSVLHEGLHNHHTEKSLSHSPGK light: not shown",Kd,[1],164 nM
same,relative mFcγRIII-binding activity (mIgG1 = 1),[1],1.7 fold vs H237-mIgG1/MRAL-k0
same,Kd,[2],2.44 nM
same,relative mFcγRII-binding activity (mIgG1 = 1),[2],86.2 fold vs H237-mIgG1/MRAL-k0
"H237-MB544/MRAL-k0 (antibody, mouse IgG1, kappa, copies: 2 + 2) heavy: QVQLQESGPGLVKPSETLSLTCAVSGHSISHDHAWSWVRQPPGEGLEWIGFISYSGITNYNPSLQGRVTISRDNSKNTLYLQMNSLRAEDTAVYYCARSLARTTAMDYWGEGTLVTVSSAKTTPPSVYPLAPGSAAQTNSMVTLGCLVKGYFPEPVTVTWNSGSLSSGVHTFPAVLQSDLYTLSSSVTVPSSTWPSETVTCNVAHPASSTKVDKKIVPRDCGCKPCICEPNEVEMVFIFPPKPKDVLTITLTPKVTCVVVDISKDDPEVQFSWFVDDVEVHTAQTQPREEQFNSTFRSVSELPIMHQDWLNGKEFKCRVNSDAFPAPIERTISKTKGRPKAPQVYTIPPPKEQMAKDKVSLTCMITDFFPEDITVEWQWNGQPAENYKNTQPIMDTDGSYFVYSKLNVQKSNWEAGNTFTCSVLHEGLHNHHTEKSLSHSPGK light: not shown",Kd,[1],87.2 nM
same,relative mFcγRIII-binding activity (mIgG1 = 1),[1],3.2 fold vs H237-mIgG1/MRAL-k0
same,Kd,[2],0.76 nM
same,relative mFcγRII-binding activity (mIgG1 = 1),[2],276 fold vs H237-mIgG1/MRAL-k0
